PMC5377818 (The Journal of Biological Chemistry, 2017)

Legend:
[1] = molecular target: FLAG-tagged influenza A virus M2 protein (influenza A virus (strain not stated)) (UniProt P05780); assay: co-IP
c-Myc-tagged cyclin D1 = c-Myc-tagged cyclin D1 (UniProt P24385 1-295); assay: co-IP; details: partners not purified
Chain of c-Myc-tagged cyclin D1 (P24385 whole entry): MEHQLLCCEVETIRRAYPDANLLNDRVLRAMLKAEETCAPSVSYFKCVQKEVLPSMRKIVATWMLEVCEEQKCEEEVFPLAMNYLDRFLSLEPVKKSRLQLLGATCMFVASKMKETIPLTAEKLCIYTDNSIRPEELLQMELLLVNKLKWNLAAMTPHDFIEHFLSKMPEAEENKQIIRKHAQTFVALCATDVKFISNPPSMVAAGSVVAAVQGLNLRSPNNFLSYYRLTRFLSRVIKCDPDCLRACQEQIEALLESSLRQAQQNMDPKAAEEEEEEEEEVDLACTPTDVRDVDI

Chain of FLAG- and c-Myc-tagged human cyclin D3 (P30281 whole entry): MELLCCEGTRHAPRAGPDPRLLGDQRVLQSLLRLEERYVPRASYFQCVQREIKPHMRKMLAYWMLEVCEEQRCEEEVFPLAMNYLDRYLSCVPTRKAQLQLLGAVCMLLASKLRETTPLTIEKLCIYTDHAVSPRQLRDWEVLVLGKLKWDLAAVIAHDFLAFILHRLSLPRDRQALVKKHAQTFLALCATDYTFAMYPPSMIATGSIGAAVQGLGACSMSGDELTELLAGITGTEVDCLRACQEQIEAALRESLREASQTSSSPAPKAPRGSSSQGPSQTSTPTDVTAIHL

Row | Molecule | percent reduction of M1 co-precipitated with M2 [1] | M2 co-precipitated, relative to cyclin D3 (c-Myc-tagged cyclin D1)
1 | FLAG- and c-Myc-tagged human cyclin D3 (from UniProt P30281-1 1-292) (natural protein) | 70% | 
2 | Influenza A/WSN/33 virus M2 protein made in infected cells (natural protein) MSLLTEVETPIRNEWGCRCNDSSDPLVIAANIIGILHLILWILDRLFFKCIYRRFKYGLKRGPSTEGVPESMREEYRKEQQNAVDVDDGHFVNIELE |  | ~50%
